The values that follow come from paper PMC6054930 (Frontiers in Immunology, 2018).

The test concerns the target T1, hPD-L1-Fc (human, UniProt Q9NZQ7 19-238).
T1 construct: human programmed death-ligand 1 (PD-L1, CD274, B7-H1); also called programmed death-ligand 1; CD274; source: bought: tebu-bio/BPS Bioscience, #71104
Kind of test: ELISA; competitive: hPD-L1-Fc coated on the plate; test antibodies in presence of 1 µg/ml PD-1-Biotin or 0.5 µg/ml CD80-Biotin; detected with streptavidin-POD. To be noted: both partners purified. Background: In an ELISA, binding on a coated surface is turned into a signal by an enzyme label.

T1 sequence (Q9NZQ7 19-238): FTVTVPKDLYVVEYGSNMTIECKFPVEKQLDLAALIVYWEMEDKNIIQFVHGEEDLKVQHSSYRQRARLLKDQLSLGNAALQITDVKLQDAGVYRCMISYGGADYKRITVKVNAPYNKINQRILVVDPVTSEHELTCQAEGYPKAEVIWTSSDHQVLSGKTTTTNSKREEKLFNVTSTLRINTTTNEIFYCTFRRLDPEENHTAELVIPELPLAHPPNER

B1: CD80-Biotin (ligand, human, UniProt P33681 35-242, looked up)
chain: VIHVTKEVKEVATLSCGHNVSVEELAQTRIYWQKEKKMVLTMMSGDMNIWPEYKNRTIFDITNNLSIVILALRPSDEGTYECVVLKYEKDAFKREHLAEVTLSVKADFPTPSISDFEIPTSNIRRIICSTSGGFPEPHLSWLENGEELNAINTTVSQDPETELYAVSSKLDFNMTTNHSFMCLIKYGHLRVNQTFNWNTTKQEHFPDN
modifications: biotin
notes: The vendor's product may carry an Fc part; also called B7-1; soluble CD80; source: bought: tebu-bio/BPS Bioscience, #71114
Turning to B1, the binding result is “binds”.
